Laboratory results published in patent US20170355766A1 (Xencor, published 2017).

T1: FcγRIIaR (human, UniProt P12318)
T1 construct: recombinant receptor protein with 6xHis and GST tags; also called R131 FcγRIIa
T1 sequence (receptor, looked up): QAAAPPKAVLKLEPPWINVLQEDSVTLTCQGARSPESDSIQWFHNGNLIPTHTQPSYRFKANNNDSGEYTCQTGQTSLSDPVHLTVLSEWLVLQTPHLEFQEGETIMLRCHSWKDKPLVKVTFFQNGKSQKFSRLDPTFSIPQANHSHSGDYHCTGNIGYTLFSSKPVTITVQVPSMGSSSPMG

T2: human FcγRIIb receptor protein (R&D Systems) (human, UniProt P31994 46-217)
T2 construct: Analyte injected over antibodies captured on a protein A/G chip (Biacore); also called CD32b
T2 sequence (looked up): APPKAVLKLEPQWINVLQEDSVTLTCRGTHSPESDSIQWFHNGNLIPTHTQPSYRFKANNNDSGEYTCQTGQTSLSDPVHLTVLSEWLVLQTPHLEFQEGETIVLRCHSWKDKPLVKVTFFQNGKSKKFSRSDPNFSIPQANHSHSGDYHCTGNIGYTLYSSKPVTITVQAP


Key:
Experiment in all cases: SPR (Biacore)
[1] = biological target: T1, FcγRIIaR
[2] = biological target: T2, human FcγRIIb receptor protein (R&D …)
[3] = biological target: T3, human FcγRI receptor protein (R&D Systems) (human, UniProt P12314 16-288)
T3 construct: also called CD64
T3 sequence (P12314 16-288 limits assumed): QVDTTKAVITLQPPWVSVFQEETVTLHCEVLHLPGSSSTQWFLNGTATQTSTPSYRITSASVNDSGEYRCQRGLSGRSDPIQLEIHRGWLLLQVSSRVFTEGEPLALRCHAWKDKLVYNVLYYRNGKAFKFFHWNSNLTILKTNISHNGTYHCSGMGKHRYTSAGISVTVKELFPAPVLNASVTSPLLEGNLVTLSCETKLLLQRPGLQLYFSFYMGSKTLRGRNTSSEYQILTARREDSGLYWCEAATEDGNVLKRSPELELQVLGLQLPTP

Fold FcγRIIaR [1] [fold]	Fold FcγRIIb [2] [fold]	Fold FcγRI [3] [fold]	Binder
0.867	1.45	–	S239N (antibody, human IgG1, kappa, HuAM4G7 IgG1 Fc variant) heavy: not shown light: DIVMTQSPATLSLSPGERATLSCRSSKSLQNVNGNTYLYWFQQKPGQSPQLLIYRMSNLNSGVPDRFSGSGSGTEFTLTISSLEPEDFAVYYCMQHLEYPITFGAGTKLEIKRTVAAPSVFIFPPSDEQLKSGTASVVCLLNNFYPREAKVQWKVDNALQSGNSQESVTEQDSKDSTYSLSSTLTLSKADYEKHKVYACEVTHQGLSSPVTKSFNRGEC
1.45	0.797	–	S298D (antibody, human IgG1, kappa, HuAM4G7 IgG1 Fc variant) heavy: not shown light: DIVMTQSPATLSLSPGERATLSCRSSKSLQNVNGNTYLYWFQQKPGQSPQLLIYRMSNLNSGVPDRFSGSGSGTEFTLTISSLEPEDFAVYYCMQHLEYPITFGAGTKLEIKRTVAAPSVFIFPPSDEQLKSGTASVVCLLNNFYPREAKVQWKVDNALQSGNSQESVTEQDSKDSTYSLSSTLTLSKADYEKHKVYACEVTHQGLSSPVTKSFNRGEC
16.7	21.2	1.66	S267E/A327D (antibody, human IgG1, kappa, HuAM4G7 IgG1 Fc variant) heavy: not shown light: DIVMTQSPATLSLSPGERATLSCRSSKSLQNVNGNTYLYWFQQKPGQSPQLLIYRMSNLNSGVPDRFSGSGSGTEFTLTISSLEPEDFAVYYCMQHLEYPITFGAGTKLEIKRTVAAPSVFIFPPSDEQLKSGTASVVCLLNNFYPREAKVQWKVDNALQSGNSQESVTEQDSKDSTYSLSSTLTLSKADYEKHKVYACEVTHQGLSSPVTKSFNRGEC
4.64	5.17	–	S267E/L328H (antibody, human IgG1, kappa, HuAM4G7 IgG1 Fc variant) heavy: not shown light: DIVMTQSPATLSLSPGERATLSCRSSKSLQNVNGNTYLYWFQQKPGQSPQLLIYRMSNLNSGVPDRFSGSGSGTEFTLTISSLEPEDFAVYYCMQHLEYPITFGAGTKLEIKRTVAAPSVFIFPPSDEQLKSGTASVVCLLNNFYPREAKVQWKVDNALQSGNSQESVTEQDSKDSTYSLSSTLTLSKADYEKHKVYACEVTHQGLSSPVTKSFNRGEC
41.5	31.5	–	S267E/N325L (antibody, human IgG1, kappa, HuAM4G7 IgG1 Fc variant) heavy: not shown light: DIVMTQSPATLSLSPGERATLSCRSSKSLQNVNGNTYLYWFQQKPGQSPQLLIYRMSNLNSGVPDRFSGSGSGTEFTLTISSLEPEDFAVYYCMQHLEYPITFGAGTKLEIKRTVAAPSVFIFPPSDEQLKSGTASVVCLLNNFYPREAKVQWKVDNALQSGNSQESVTEQDSKDSTYSLSSTLTLSKADYEKHKVYACEVTHQGLSSPVTKSFNRGEC
0.853	0.729	–	S239Q (antibody, human IgG1, kappa, HuAM4G7 IgG1 Fc variant) heavy: not shown light: DIVMTQSPATLSLSPGERATLSCRSSKSLQNVNGNTYLYWFQQKPGQSPQLLIYRMSNLNSGVPDRFSGSGSGTEFTLTISSLEPEDFAVYYCMQHLEYPITFGAGTKLEIKRTVAAPSVFIFPPSDEQLKSGTASVVCLLNNFYPREAKVQWKVDNALQSGNSQESVTEQDSKDSTYSLSSTLTLSKADYEKHKVYACEVTHQGLSSPVTKSFNRGEC
74	53.4	–	S267E/L328I (antibody, human IgG1, kappa, HuAM4G7 IgG1 Fc variant) heavy: not shown light: DIVMTQSPATLSLSPGERATLSCRSSKSLQNVNGNTYLYWFQQKPGQSPQLLIYRMSNLNSGVPDRFSGSGSGTEFTLTISSLEPEDFAVYYCMQHLEYPITFGAGTKLEIKRTVAAPSVFIFPPSDEQLKSGTASVVCLLNNFYPREAKVQWKVDNALQSGNSQESVTEQDSKDSTYSLSSTLTLSKADYEKHKVYACEVTHQGLSSPVTKSFNRGEC
0.704	0.147	–	V266D (antibody, human IgG1, kappa, HuAM4G7 IgG1 Fc variant) heavy: not shown light: DIVMTQSPATLSLSPGERATLSCRSSKSLQNVNGNTYLYWFQQKPGQSPQLLIYRMSNLNSGVPDRFSGSGSGTEFTLTISSLEPEDFAVYYCMQHLEYPITFGAGTKLEIKRTVAAPSVFIFPPSDEQLKSGTASVVCLLNNFYPREAKVQWKVDNALQSGNSQESVTEQDSKDSTYSLSSTLTLSKADYEKHKVYACEVTHQGLSSPVTKSFNRGEC
